This note sets out measurements from a protein production outcome set (Wang et al. 2014).

The series can be described thus: label from the status in PepcDB records.
As for “MKVRAIKSFLVTTMAMTFLVSMGQGSILTKANTINNMKYVTEAFGAIPTEEQVSYQKEELTAFIHFGVNTFTGREWGDGTENPEIFNPTNLDADQWVKTLADAGFGRVILTAKHHDGFCLWDSAYTKHDVASSPWKNGKGDVVKEVSEACAKYNIKFGVYLSPWDQNSEHYGEGNGGDYNEFYMNQLRELLTNYGPIAEVWMDGAKGSNVKQEYNFEEWFALIKELQPECLIFSPQGPDIRWIGNEKGYAGEPCWSTIDIEKMKERENPTYLNNGEEGGPDWVVGESDVSIRPGWFYHESQDNEVKSLEKMMDIYFKSIGRNSVLLLNVPPNKEGKLHENDVNRLKEFGETIKELFNDDLALNKEVIVDGFANRDETYGANKIVDGDYDTYWAPDNSSKTGTIEIDLGESKEFDVISLQEYIPLGQRVSSFNVEVLQGENWNKVYEGKTIGYKRLVRIAPTKGEKIRINITGSLEVPLINNVGVYKQPTSIELPSGPPAGLKVLNDDNKGNELEQFNFSDGWVYETIHGENDLGGDAHYTSKTNATVNIKFNGTKFFLSGTKDSGHGIMEISIDGENPVEVDLYSPNRKSKEIVFESEDLSDGEHEVTVKCTGRKNSSSRGTAAHIDGAYVLDNGGKGMVEFEKVGYEVSENIGTATFKVIRKGGSNGKLEVNYDTLAGTALNGVDYQTWSGTLAFNEGETEKTFDITIIDDKEKEEPKEFYLKLSDPIGGILGFNSRATVTINDDEQIK”, the protein production result was “failed”.
Consider “IEVSYHTPDGVPGVVMTTPKLDDGTPFPTLYYLTEPRLTAEASRLEVAHVMKWMTDRLHSDEELRQDYERAHEYFLAKRNALEDLGTDFSGGGMPDRVKCLHVLIAYALAEGPDHFRLGTEAVALA”, for which the protein production result was “failed”.
With “MSSSSPGEPLEPTDQDLDVLLKNLGNLVTPMALRVAATLRLVDHLLAGADTLAGLADRTDTHPQALSRLVRHLTVVGVLEGGEKQGRPLRPTRLGMLLADGHPAQQRAWLDLNGAVSHADLAFTGLLDVVRTGRPAYAGRYGRPFWEDLSADVALADSFDALMSCDEDLAYEAPADAYDWSAVRHVLDVGGGNGGMLAAIALRAPHLRGTLVELAGPAERARRRFADAGLADRVTVAEGDFFKPLPVTADVVLLSFVLLNWSDEDALTILRGCVRALEPGGRLLVLDRADVEGDGADRFFSTLLDLRMLTFMGGRVRTRDEVVDLAGSAGLALASERTSGSTTLPFDFSILEFTAVSEEAAPAAQASEALPAQE”, the protein production entry was “not failed”.
As to “MARTLFLEEGPMFFEKIAPYTYRIPRQGKMRVDAVFFASKEILKDLEAENYASLQQLMNVATLPGIVEPALAMPDIHWGYGFPIGGVAAFDPEEGGVVSPGGVGFDINCGVRLLASHLTLEDLLPRQKELADALYRLVPSGVGSERRDVRFSKRELKEILKEGAGWLVKRGYGYPEDVRFIESQGRLPWANPDKVSERAFERGAPQIGTLGSGNHFLEVQYVDEVYDEEAALAFGLFKGQVTVLIHTGSRGLGHQVCQDYVERFLKVAPRYGIELVDKQLAAAPIKSPEGQDYLQAMAAAANFAFANRQLIAHFVREAFEKVGFTPRDHGLRVLYDLAHNNAKFEEHRGRRVLVHRKGATRAFGPGHPEVPEEYRRVGQPVLVPGDMGRYSYVLAGTEKAMEVSFGSSCHGAGRKMSRHQAKKVARERNLVKELAERGILVRAATRATVDEEMPEAYKDVSLVVEAVEGAGIGKKVARLRPLIVVKG”, the protein production result is listed as “not failed”.
As for “LFTESAKAVLAIAQEEAKYFRHQSVGSEHLLLALVLEPNGIAGKTLRQLNTDTEDIREEIEHLSGYGTMQSPMGNNNLYLPYSPRAKQIFAYAGDEAKRLGAQKIGTEHLLLGLLRDEEILASRILVNLGLSLSKMRQLLLKKMG”, the protein production entry is recorded as “failed”.
To “MSPQSPSNSSISTDDQAGKNPAAAFGPNEWLVDEIYQQYLQDPNSVDRAWWDFFADYKPGAAAASAPAGTAAAGAAETTTPAPAAPTAAAPAAPAAPAPAAPAPAPAAPAPAAAPAVPKPAAAAPAPAAAKPAAAAPAQPKAAAATEAAEGPTFVPLRGPAAAVAKNMNASIEVPTATSVRAVPVKLLFDNRIVINNHLKRARGGKISFTHLIGYAMVQAIKAMPSMNWHYAEKDGKPTLVKPAHVNFGLAIDLVKPNGDRQLVVAGIKKAETLNFFEFWQAYEDIVRRARDGKLTMDDFTGVTVSLTNPGGLGTVHSVPRLMPGQSVIMGVGSMDYPAEFQGTSQDTLNKLGISKVMTLTSTYDHRVIQGAASGEFLRIVANFLLGEGGFYDEIFEALRIPYEPVRWLKDIDASHDDDVTKAARVFELIHSYRVRGHVMADTDPLEYRQRKHPDLDITEHGLTLWDLEREFAVGGFAGKSLMKLRDILGVLRDSYCRTTGIEFMHIQDPKQRKWIQDRIERSHSKPEREEQLRILRRLNAAEAFETFLQTKYVGQKRFSLEGGESVIPLLDAVIDSAAESRLDEVVIGMAHRGRLNVLANIVGKSYAQIFREFEGNLDPKSMHGSGDVKYHLGASGTFTGLDGEQIKVSLAANPSHLETVDPIIEGIARAKQDIINKGGTDFTVLPVALHGDAAFAGQGVVAETLNMSQLRGYRTGGTVHIVINNQVGFTAAPESSRSSMYATDVARMIEAPIFHVNGDDPEAVVRVARLAFEFRQAFNKDVVIDLICYRRRGHNESDNPAFTQPLMYDLIDKKRSVRKLYTESLIGRGDITLEEAEQALQDFQGQLEKVFTEVREAISTPGEAPAPEPQPEFPVAVPTAVSQEVVKRIAESQVNIPDHVTVHPRLLPQLQRRAAMIEDDTIDWGMGETLAIGSLLLEGTPVRLSGQDSRRGTFGQRHAVLIDRVTGEDFTPLQYLADDQARLNVYDSLLSEYAVMGFEYGYSLARPDALVMWEAQFGDFVNGAQTVVDEYISAAEQKWGQTSGVTLLLPHGYEGQGPDHSSARIERFLQLCAQNNMTVAQPTLPSNYFHLLRWQVHNPHHKPLVVFTPKSMLRLKAAASKTEEFTTGAFRPVIGDDTVDAAAVRKVVFCAGKLYYDLEAERKKRGATDAAAAETAIIRLERLYPLPGAELQAEIAKYPNAEKYLWAQEEPANQGAWPFIALNLIDHLDLAVGADVPHGERLRRISRPHSSSPAVGSAKRHQAEQEQLVREVFEA” belongs “failed”; to “MTDKIFQEKVGPVALTIVPTQKYKSNKIVFKFRAPLERETVTKRSLLSILLETNSEKYPTQTAFRKQLANLYGANFYTTTAKKGNEHVLTVVFDMIDGQYVSDGENILKDAFAFIEQAIFQPNATNGAFDEEIVVREKENLKSSLEGIYDDKIRFASKRLVEEMFRDDEFRFGAAGVLEDVDAITAKDLYEYYLKFIKEDVIEIFICGDVTKEEVMPLIEKMAFSPRPERKGVFYTKEAPKETRVIHEQQAINQGKLVLGYQTETLFGDDDFVALQLANGLLGGFANSKIFINVREKASLAYYASSRIDSFKGYMIISAGIDEVNYKQALTIIEEQIVAMKQGDFTEDELNQTKEMLINQLLETNDQAQGLIELAYNNVLREANLDLENWIIKIKQATKQEVVAAINKIKPDTIYFLSKGGEELHGKNHI”, “failed”.
On to “MVGGGSKHVGEGSKPRATKDDAYAYLRAVRAKFHNDSKKYDDFVAVMTNFKARRIDRDGCIKEVEQLLKGHRDLISGFNAFLPKCLEIKNYYFGAGEDLEVVYTAKRKLLARSVTKRSSSSSSSSSVYFLFRSCEII”, for which the protein production entry is recorded as “failed”.
Regarding “MLAVSFIAGVILIGLYGVDSSERYIAVSELLANPQDYSGQNINAMGVVEDRSLHKDPGVTSFDLKDENDENLKIHVNYVGNLPSNLAEGKQVTIRGSMISESTFEANKIVTGCPSKYTELEHHHHHH”, the protein production entry was “failed”.
Take “MGKIFCIVQARMGSERLQGKVIKPILKKPMVIYTLDRLKKSKYIDKIVLATSSMERETPLVESCEEYGYDVFKGSEANVLKRYEQAAEKYGANIEDAVIRVTGDCPLIDPIIVDNVVTKFLSSDYDYVRLDVPNTFVRGFDVEIFSMKALKTVNSLINGGKIPKEEADMYKEHVTLYMYKHPNEFKVGYVKGDEFYSKDYRLCVDTKEDFELVKNIYEHFNDEFVSSKNVINYLDRNSEIAQINNDIKQKEVLEHHHHHH”: the protein production entry is “not failed”.
Take “MSTNEITKRLPNLTSRRALLLYSLPVLVAIGVSHSLKESSLTKTIALNLPESQVVERILDATTAEVVTPPNFEYQIQAGDNLSTIFSQLGFGYSSLMKVMETDLNYLALDTLKPGNTLRFWRNDATGELEKMELQFSIADKVVYQLNSDGGYDFTDISIPGVWRQEPLVGVIQGSFSSSANRLGLSSAEISQVVSLLKEQVNFGRDLRAGDRFEVVRRSQTINGVSTGKNEIEAIKIYNRGREITAYLHTDGQFYNAKGESLQRAFQRYPVSRSWRISSGFNPNRLHPVTGRVAP”: the protein production entry was “failed”.
For “MGLNSKAEVAKSRKNAAEAEQKDRQTREKEEQYWREAEGPKSKAVKKREEEAEKKAETAAKKLEAKRLAEQEEKELEKALKKPDKKANRVTVPVPKVTEAELIRRREEDQVALAKKAEDSKKKQTRMAGEDEYEKMVLVTNTNRDDSLIEAHTVDEALARITVSDNLPVDRHPEKRLKASFKAYEEVELPRLKSEKPGLTHTQYKDLIWKMWKKSPDNPLNQAAAAAANE”, the protein production entry is “failed”.
To “MDLVEKVKELCLELEEENLAKAIERFITLTHGIEKTRGEAFAKASIYGFLEGILTTLKMKYSNEKIETLLNEVKTAREETEALLRKPRPPLLVDNDL” belongs “not failed”; to “MFPLTEENKHVAQLLLNTGTCPRCIFRFCGVDFHAPYKLPYKELLNELQKFLETEKDELILEVMNPPPKKIRLQELEDSIDNLSQNGEGRISVSHVGSTASKNSNLNVCNVCLGILQEFCEKDFIKKVCQKVEASGFEFTSLVFSVSFPPQLSVREHAAWLLVKQEMGKQSLSLGRDDIVQLKEAYKWITHPLFSEELGVPIDGKSLFEVSVVFAHPETVEDCHFLAAICPDCFKPAKNKQSVFTRMAVMKALNKIKEEDFLKQFPCPPNSPKAVCAVLEIECAHGAVFVAGRYNKYSRNLPQTPWIIDGERKLESSVEELISDHLLAVFKAESFNFSSSGREDVDVRTLGNGRPFAIELVNPHRVHFTSQEIKELQQKINNSSNKIQVRDLQLVTREAIGHMKEGEEEKTKTYSALIWTNKAIQKKDIEFLNDIKDLKIDQKTPLRVLHRRPLAVRARVIHFMETQYVDEHHFRLHLKTQAGTYIKEFVHGDFGRTKPNIGSLMNVTADILELDVESVDVDWPPALDD”, “failed”.
Turning to “MDAKHIEKVFVKKVPAKSNKAQVKYPFDENSVNVLIIGLDKASNRSTYDLHRTDTILFLNINFKDKKVKGISIPRDTLTEIYKVGKWDKINSAFGYGGGEKEEGFFYTMETVSKLLGGMPIEYYVGFDLDAVRKVVNILGGVYVNVEVPVKVKTKWVNIDLKPGYQKLNGIETLYYALWRKTPGGDIDRIKRDKELILSVFEQLKESNKIITLPEIYWKIRRHFYTNLSLQQITSLAYFAQNMKKEDIVFESIPGDYFNYMGVSYWKPDYEGIKKLVKDLFGYDIEIDLKMPEKYKYARRIIVKAKKENNISYLEHHHHHH”, the protein production result is listed as “not failed”.
As for “MSSTPATPAISPTQQSALALWRMRLITLLPLGAIAWISMVLADHPAIAHYGLSALTLAMGAGMVAANTMPKHWLAPLAPGMQFARHHLLRLGVALYGLRLTFGAIAALGVGGVVVPLTMLVATLLFGTWVGSSFFGLSRREAILVSAGSAVCGAAAAIAVSSVVRTDDRQTAVAVATVVLFGTVGMLLYPWLYELATQHWHLAISERSFGIFTGATLHEVAQVIASGKMVSDGAADAAVVAKMVRVLALGPLLLVMALWPRTSWSQASGGSRNLHGLLRSVPWFALGFVAVMALNSAQMVPADWKPALIGFDNWMLACAMLAIGLHTRIGDLLRAGRKPLALAGVLFLFLMVVGAALCALLV”, the protein production result is “failed”.
In the case of “MHWTIIGGGIQGTAIAQKLLSSGLTTDLLTIIDPHETFCQRFNSYTNRIEMPYLRSPIVHHVHPQPFHLKQFAKQHQYTNAFYGPYQRPELTMFMNHIAHASKQYQLEDCLVQGLVQTLDKQEDKWHIKLEDGQIITTDCVVIAIGSTNIPFMPDILKDKQNVNHIFEKEHDQVVYDKTDHIVGSGITAAHLALKLLNHDNDKKI”, the protein production entry is recorded as “failed”.
